Like-named read-outs stand apart in the source and are kept apart here. No end group written: not given here.
How the values were obtained:
purified αvβ3 integrin [1] = target: T1, purified αvβ3 integrin (human, UniProt P06756 31-1048; P05106 27-788, limits assumed); assay: competition ELISA on αvβ3 coated wells; competitor: biotinylated FNfn10-3JCLI4 at 800 pM; no inhibition at the highest concentration
T1 construct: Bought purified integrin, coated on plates at 5 µg/ml; also called immobilized human αvβ3 integrin; CD51/CD61

purified αvβ3 integrin [2] = target: T1, purified αvβ3 integrin
[3] = target: αvβ3 integrin on K562-αvβ3 cells (human, UniProt P06756 31-1048; P05106 27-788); assay: cell-based or functional assay
[4] = target: αIIbβ3 integrin on K562-αIIbβ3 cells (UniProt P08514 32-1039; P05106 27-788); assay: cell-based or functional assay

T1 sequence (P06756 31-1048 limits assumed, form in doubt, chain 1 of 2): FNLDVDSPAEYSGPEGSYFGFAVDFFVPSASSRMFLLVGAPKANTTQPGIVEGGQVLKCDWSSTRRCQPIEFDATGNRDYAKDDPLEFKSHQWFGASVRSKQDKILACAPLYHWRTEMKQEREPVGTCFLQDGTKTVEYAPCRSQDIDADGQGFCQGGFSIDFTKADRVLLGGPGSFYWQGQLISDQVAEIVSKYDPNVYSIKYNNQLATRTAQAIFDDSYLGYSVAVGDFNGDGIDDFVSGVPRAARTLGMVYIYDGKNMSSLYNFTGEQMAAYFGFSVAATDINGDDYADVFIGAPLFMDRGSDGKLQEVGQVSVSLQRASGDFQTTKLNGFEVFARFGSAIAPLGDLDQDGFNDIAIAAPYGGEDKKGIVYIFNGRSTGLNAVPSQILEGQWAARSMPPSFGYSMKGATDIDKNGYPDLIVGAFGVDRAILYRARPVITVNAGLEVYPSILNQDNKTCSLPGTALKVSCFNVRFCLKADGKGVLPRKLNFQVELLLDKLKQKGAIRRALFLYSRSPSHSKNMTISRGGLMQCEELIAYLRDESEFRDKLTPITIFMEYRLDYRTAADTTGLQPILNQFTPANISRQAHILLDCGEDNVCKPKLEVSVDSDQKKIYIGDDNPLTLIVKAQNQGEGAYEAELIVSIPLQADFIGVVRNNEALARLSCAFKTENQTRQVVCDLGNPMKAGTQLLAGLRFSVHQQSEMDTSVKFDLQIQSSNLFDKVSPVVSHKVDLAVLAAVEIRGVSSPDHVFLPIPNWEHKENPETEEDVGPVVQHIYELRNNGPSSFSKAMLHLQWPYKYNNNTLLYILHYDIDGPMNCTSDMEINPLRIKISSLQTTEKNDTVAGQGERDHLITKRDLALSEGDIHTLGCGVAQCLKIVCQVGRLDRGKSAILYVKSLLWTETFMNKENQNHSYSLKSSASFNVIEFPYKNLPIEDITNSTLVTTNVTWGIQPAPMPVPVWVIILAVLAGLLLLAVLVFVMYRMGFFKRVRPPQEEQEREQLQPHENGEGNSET
T1 sequence (P05106 27-788 limits assumed, form in doubt, chain 2 of 2): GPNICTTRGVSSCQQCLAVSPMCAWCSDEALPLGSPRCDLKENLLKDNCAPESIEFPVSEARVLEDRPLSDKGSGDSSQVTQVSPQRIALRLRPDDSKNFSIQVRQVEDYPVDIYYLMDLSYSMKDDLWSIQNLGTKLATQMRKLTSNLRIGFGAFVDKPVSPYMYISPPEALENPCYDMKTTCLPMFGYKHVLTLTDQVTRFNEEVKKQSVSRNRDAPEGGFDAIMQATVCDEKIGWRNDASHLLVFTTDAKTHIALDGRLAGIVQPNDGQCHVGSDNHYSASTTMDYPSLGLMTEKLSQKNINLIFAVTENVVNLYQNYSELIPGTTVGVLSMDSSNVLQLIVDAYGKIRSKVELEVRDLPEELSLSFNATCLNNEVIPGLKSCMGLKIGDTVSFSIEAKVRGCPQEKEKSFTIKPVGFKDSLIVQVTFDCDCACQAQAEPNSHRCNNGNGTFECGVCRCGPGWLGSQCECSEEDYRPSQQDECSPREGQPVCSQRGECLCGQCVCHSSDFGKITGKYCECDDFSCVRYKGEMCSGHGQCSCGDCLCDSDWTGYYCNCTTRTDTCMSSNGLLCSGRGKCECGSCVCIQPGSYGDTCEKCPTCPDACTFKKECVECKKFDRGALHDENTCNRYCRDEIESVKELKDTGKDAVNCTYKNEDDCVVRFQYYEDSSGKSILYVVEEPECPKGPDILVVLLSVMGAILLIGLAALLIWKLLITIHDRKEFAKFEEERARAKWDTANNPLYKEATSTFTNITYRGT
αvβ3 integrin on K562-αvβ3 cells, sequence (P06756 31-1048, chain 1 of 2): as the sequence (P06756 31-1048 limits assumed, form in doubt, chain 1 of 2) above
αvβ3 integrin on K562-αvβ3 cells, sequence (P05106 27-788, chain 2 of 2): as the sequence (P05106 27-788 limits assumed, form in doubt, chain 2 of 2) above

Binder | IC50 (purified αvβ3 integrin [1]) [nM] | IC50 (purified αvβ3 integrin [2]) [nM] | inhibition of adhesion of K562-αvβ3 cells to vitronectin, IC50 [3] [nM] | inhibition of adhesion of K562-αIIbβ3 cells to fibronectin, IC50 [4] [nM]
GRGDSPK [GRGDSPK peptide] | > 80 |  |  | 
QCESGPCCRNCKFLKEGTICKRARGDDMDDYCNGKTCDCPRNPHKGPAT (ligand, ends and bridges not checked; cysteine pairing not given here) [echistatin] |  | 0.93 | 5.9 | 10.2
